Here are results for three molecules from article PMC4237329, “Early Chordate Origin of the Vertebrate Integrin αI Domains” (PLoS ONE, 2014).

Like-named read-outs stand apart in the source and are kept apart here.

This assay concerns the target T1, rat tail collagen I (rat, UniProt P02454 152-1207; P02466 86-1125).
T1 construct: collagen α1(I) chain, rat; collagen α2(I) chain, rat; also called rat collagen I; source: bought: Sigma Aldrich (rat tail collagen I)
As to the kind of experiment: solid-phase binding assay (Europium-labelled anti-GST antibody, time-resolved fluorescence); 96-well plates coated with rat collagen I; GST-αI domain at various concentrations, one hour at RT, PBS + 2 mM MgCl2; apparent affinity constants from a hyperbolic fit (Hill's equation with h = 1).

T1 sequence (P02454 152-1207, chain 1 of 2): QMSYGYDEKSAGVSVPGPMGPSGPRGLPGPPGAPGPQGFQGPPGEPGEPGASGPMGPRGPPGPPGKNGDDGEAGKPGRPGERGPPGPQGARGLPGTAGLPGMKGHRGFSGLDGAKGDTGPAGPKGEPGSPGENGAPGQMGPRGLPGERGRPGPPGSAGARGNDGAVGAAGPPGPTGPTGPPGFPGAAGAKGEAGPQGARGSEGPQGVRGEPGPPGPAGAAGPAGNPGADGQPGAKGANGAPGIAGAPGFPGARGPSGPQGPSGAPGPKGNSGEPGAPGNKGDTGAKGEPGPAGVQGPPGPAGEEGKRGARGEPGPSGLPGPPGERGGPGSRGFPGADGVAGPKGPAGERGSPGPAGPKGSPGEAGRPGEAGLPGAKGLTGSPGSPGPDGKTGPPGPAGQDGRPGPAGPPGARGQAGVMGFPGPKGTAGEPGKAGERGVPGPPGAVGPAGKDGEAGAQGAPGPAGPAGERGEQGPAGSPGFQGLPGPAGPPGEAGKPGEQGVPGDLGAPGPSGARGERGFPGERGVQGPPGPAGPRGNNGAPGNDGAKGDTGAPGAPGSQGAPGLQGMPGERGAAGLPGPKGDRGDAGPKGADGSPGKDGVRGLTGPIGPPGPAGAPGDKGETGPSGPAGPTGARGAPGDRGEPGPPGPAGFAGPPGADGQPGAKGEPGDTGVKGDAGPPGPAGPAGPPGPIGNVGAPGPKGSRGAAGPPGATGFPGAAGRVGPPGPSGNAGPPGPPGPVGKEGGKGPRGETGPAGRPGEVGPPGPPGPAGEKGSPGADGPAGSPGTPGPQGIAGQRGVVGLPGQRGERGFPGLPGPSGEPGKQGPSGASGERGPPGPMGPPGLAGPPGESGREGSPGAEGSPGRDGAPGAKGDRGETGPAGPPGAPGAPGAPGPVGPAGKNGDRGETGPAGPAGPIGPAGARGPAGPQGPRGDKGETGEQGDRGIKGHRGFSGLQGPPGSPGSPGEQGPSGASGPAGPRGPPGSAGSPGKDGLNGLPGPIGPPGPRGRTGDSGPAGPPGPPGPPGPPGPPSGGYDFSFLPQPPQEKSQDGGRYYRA
T1 sequence (P02466 86-1125, chain 2 of 2): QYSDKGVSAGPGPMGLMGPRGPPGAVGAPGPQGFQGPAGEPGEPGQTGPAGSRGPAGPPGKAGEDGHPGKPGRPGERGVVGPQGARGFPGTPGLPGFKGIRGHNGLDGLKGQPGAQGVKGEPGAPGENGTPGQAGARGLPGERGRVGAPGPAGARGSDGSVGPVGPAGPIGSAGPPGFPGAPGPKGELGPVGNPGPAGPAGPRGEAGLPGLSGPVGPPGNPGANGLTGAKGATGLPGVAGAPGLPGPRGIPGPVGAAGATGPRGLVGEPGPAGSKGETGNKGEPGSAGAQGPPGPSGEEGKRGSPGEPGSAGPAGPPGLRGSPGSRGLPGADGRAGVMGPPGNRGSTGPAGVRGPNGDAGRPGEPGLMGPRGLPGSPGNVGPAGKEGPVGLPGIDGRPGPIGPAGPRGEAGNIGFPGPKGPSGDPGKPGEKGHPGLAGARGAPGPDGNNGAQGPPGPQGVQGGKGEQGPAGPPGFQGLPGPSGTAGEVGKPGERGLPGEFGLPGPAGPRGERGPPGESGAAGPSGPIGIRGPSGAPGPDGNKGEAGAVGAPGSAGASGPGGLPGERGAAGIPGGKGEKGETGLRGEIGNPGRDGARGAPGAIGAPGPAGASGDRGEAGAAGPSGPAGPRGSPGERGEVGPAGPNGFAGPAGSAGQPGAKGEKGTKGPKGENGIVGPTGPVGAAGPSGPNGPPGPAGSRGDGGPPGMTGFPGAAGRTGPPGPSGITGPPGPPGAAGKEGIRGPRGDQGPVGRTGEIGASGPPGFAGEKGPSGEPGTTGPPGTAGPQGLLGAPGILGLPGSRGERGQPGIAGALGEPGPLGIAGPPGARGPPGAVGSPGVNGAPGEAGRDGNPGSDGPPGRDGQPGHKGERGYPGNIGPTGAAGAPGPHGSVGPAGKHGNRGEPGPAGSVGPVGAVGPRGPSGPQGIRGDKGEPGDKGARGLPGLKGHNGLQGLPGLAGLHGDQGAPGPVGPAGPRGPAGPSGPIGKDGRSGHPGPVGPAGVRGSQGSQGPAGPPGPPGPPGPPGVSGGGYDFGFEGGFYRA

On to “Pma_f1 αI domain (sea lamprey integrin α subunit fragment Pma_f1), GST-fusion protein (domain or fragment)”, for which the Kd was 200 nM.

As for “Pma_f3 αI domain (sea lamprey integrin α subunit fragment Pma_f3), GST-fusion protein (domain or fragment)”, the Kd amounted to 195 nM.

B1: Pma_f2 αI domain (sea lamprey integrin α subunit fragment Pma_f2), GST-fusion protein (domain or fragment, sea lamprey (Petromyzon marinus))
chain: ADFQVTSTLTPAAQRCGLFMDIVIVLDGSNSIYPWQEVQNFVINIVKKFHIGPGQSRNGGGSTRFGVRTIHWHLGIARWACEGVQDVENIYSRPFVRTASALCQSLQVVRSEAFSPLFGAREGASKVMIVVTDGESHDSEDLTEAIAACERDNITRYAIAVLGYYKRKNIDPSNFISELKAISSEPEEKHFINVADEAALNDIVGTLGERIFSLEGTV
notes: also called Pma αI domains; source: E. coli BL21 tuner (gene synthesized, in pGEX-2T), recombinant GST-fusion protein, "sufficiently pure"
Turning to B1, the Kd (both partners purified) came to 375 ± 120 nM.
